In paper PMC10845952:

Columns and labels:
[1] = target: MecA fused to the RenG N-terminal domain (1-155) (S. mutans) (UniProt Q8DW33); assay: split reporter (BiFC, NanoBiT)
[2] = target: RNase J1 fused to the RenG N-terminal domain (NTD1, 1-155) (S. mutans); assay: split reporter (BiFC, NanoBiT); RenG split luciferase complementation assay (SLCA) in live S. mutans at mid-log phase, coelenterazine-h, normalised to OD600; signal relative to unfused fragments; relative binding affinity = SLCA value divided by the value of the whole-RenG chimera of the less abundant partner

Chain of MecA fused to the RenG N-terminal domain (1-155) (S. mutans) (Q8DW33 whole entry, the tested form may be a part): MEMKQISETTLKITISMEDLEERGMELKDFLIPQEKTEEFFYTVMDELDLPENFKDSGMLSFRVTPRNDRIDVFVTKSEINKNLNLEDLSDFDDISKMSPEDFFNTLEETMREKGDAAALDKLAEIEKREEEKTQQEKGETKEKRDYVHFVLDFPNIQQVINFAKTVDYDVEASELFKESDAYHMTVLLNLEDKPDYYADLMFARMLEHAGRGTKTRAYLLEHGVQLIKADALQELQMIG

In the case of “ComX fused to the RenG C-terminal domain (156-314) (natural protein)”, the relative binding affinity (%) [1] is reported as 6.3%.
Substance “GyrA fused to the RenG C-terminal domain (156-314) (natural protein)” has a relative binding affinity (%) [1] of 12.9%.
“PcrA fused to the RenG C-terminal domain (156-314) (from UniProt Q8DTY6 1-733) (natural protein)” was tested, and the relative binding affinity (%) [1] was 6.36%.
For “RNase J2 fused to the RenG C-terminal domain (CTD1, 156-314) (natural protein)”, the relative binding affinity (%) [2] was 97.8%.
“SpaP fused to the RenG C-terminal domain (156-314) (from UniProt P23504 998-1532) (natural protein)” showed a relative binding affinity (%) [1] of 1.72%.
